Paper PMC6021111, “Murine leukemia virus p12 tethers the capsid-containing pre-integration complex to chromatin by binding directly to host nucleosomes in mitosis” (PLoS Pathogens, 2018)

Experiments:
GST-p12_WT = test: SILAC-MS of proteins enriched with GST-p12_WT relative to GST; assay type: binding, Mo-MLV; conditions: log2(H/L) >2.58 SDs from mean
Source text: To test whether GST-p12 was acting like the p12 region of Gag, we used a global proteomic approach based on stable isotope labelling by amino acids in cell culture (SILAC)-mass spectrometry (MS) to look for host proteins that interact with GST-p12 [35, 36]. A schematic diagram of the workflow is illustrated in Fig 4A. Briefly, GST, GST-p12_mut14 and GST-p12_WT were transiently-expressed in 293T cells cultured in light (R0/K0), medium (R6/K4) and heavy (R10/K8) SILAC media, respectively. Next, lysates of nocodazole treated transfected cells were prepared, normalised and used for parallel pull-down assays with glutathione-sepharose beads. The eluates from the beads were then pooled in a 1:1:1 ratio and subjected to LC-MS/MS analysis. The experiment was performed using biological replicates to test reproducibility of the mass-spec hits. The pull-down assays for this experiment were performed using mitotic cell lysates to facilitate identification of any potential chromatin interactions that were previously missed.
After removal of obvious contaminants (e.g. keratin) and non-quantified hits, 948 and 879 proteins were identified in replicates 1 and 2 (R1 and R2) of the experiment respectively (the false discovery rate (FDR) was set at 5%). To select proteins enriched in the heavy-labelled (H) GST-p12_WT sample relative to the light-labelled (L) GST sample, we compared the log2(H/L) silac ratios of the mass-spectrometry hits. When plotted as a frequency distribution, the log2(H/L) ratios of each replicate fitted well to a normal distribution curve (R^2 ≥ 0.98), allowing the mean and standard deviation to be accurately estimated (Fig 4B). In this experiment, contaminants/non-specifically bound cellular proteins were assumed to cluster around the mean of the distribution. […] Twenty one such proteins were identified in R1 and 22 identified in R2 (Fig 4B Venn diagram). […] These proteins were then ranked based on normalised abundance in the group. In mass-spectrometry analysis, larger proteins are in general assigned higher scores. Therefore, to control for protein size, we divided the number of peptide spectral matches identified for each protein with its length and then normalised the values across the group (Fig 4C and 4D). When ranked this way, the clathrin heavy chain (CLTC), clathrin interactor 1 (CLINT1) and NEDD4-like E3 ubiquitin ligase (WWP2) were identified as the top three hits. […] The function of clathrin in MLV infection is unclear. […] Thus, clathrin binding may be relevant to the early stages of MLV replication and should be investigated further.
For SILAC-MS experiments, 293T cells were grown is media containing light (R0K0, ^12C-Arginine and ^12C-Lysine), medium (R6K4, ^13C-Arginine and Lysine-4,4,5,5-d4) or heavy (R10K8, ^13C+^15N-Arginine and ^13C+^15N-Lysine) versions of L-Arginine and L-Lysine amino acids (Pierce) for a minimum of 6 doublings before transient expression of GST-p12 proteins. After performing the glutathione-sepharose pull-down assays equivalent volumes of the beads eluates were pooled and submitted to the Bristol University Proteomics Facility for RP nano-LC-MS/MS analysis. This analysis was performed on an LTQ-Orbitrap Velos mass spectrometer in line with a Dionex Ultimate 3000 nanoHPLC system as described in [53].
Supplementary file ppat.1007117.s005.xlsx: S1 Table Results from the first SILAC-MS analysis. GST, Mo-MLV GST-p12_mut14 or GST-p12_WT were transiently-expressed in 293T cells cultured in light (R0/K0), medium (R6/K4) and heavy (R10/K8) SILAC media, respectively. Mitotic cell lysates were subsequently used for glutathione-sepharose bead pull-down assays. Bead eluates were pooled in a 1:1:1 ratio and then analysed by LC-MS/MS. […] (XLSX) Click here for additional data file.

[1] = tested on: double- and single-stranded calf thymus DNA; test: Pull-down with DNA-coated cellulose beads; assay type: binding; conditions: 293T lysates
Experimental: GST-p12 and IN-HA were expressed in 293T cells from pCAGGS/GST and pCMV4/HA-derived plasmids respectively, by transient transfection using Turbofect (Thermo Fisher Scientific). Approximately 24 h after transfection, cells were changed into fresh media and incubated overnight at 37°C. Cells were then washed and lysed in 20 mM Tris-HCl pH 8.0, 300 mM NaCl, 1 mM EDTA, 10% Glycerol, 1% Triton X-100, protease inhibitors. Lysis was facilitated by passing the lysates through a 19-gauge needle x7 and sonication, x7 pulses, 30 s ON and 30 s OFF, in an ice bath (Decon FS100). After sonication, the lysates were supplemented with 4 mM MgCl2 and 1 mM DTT, and incubated for a further 1 h at 4°C. The lysates were then clarified by centrifugation and diluted 1:3 in 20 mM Tris-HCl pH 8.0, 10% glycerol, 4 mM MgCl2 and 1 mM DTT. The lysates were then normalised based on total protein concentration using the Bradford protein assay (Bio-Rad). 0.7 ml aliquots of lysates at 0.7 mg/ml were incubated with calf thymus DNA-coated cellulose beads (100 μl/reaction of a 50% slurry) (Sigma) for 1 h at 4°C with end-over-end rotation. The beads were then washed three times in 20 mM Tris pH 8.0, 100 mM NaCl, 0.33 mM EDTA, 10% Glycerol, 0.33% Triton X-100, 4 mM MgCl2 and 1 mM DTT and re-suspended in 50 μl of x2 protein loading dye for SDS-PAGE and immunoblotting.

[2] = Biochemical fractionation of 293T cells expressing GST-p12; assay type: cell-based; conditions: cycling cells, ~40 h expression, immunoblot of S2, S3, P3
Experimental: GST-p12 proteins were expressed in 293T cells from pCAGGS/GST-derived plasmids by transient transfection using Turbofect (Thermo Fisher Scientific). Cell media was changed 24 h after transfection, and cells were incubated overnight at 37°C, before being harvested, counted, pelleted (500 g, 5 min) and snap frozen in dry ice/ethanol. Biochemical fractionation of cells was performed essentially as described in [14]. Briefly, cell pellets thawed on ice were resuspended at 2.5× 10^7 cells/ml in buffer 1 (10 mm HEPES pH 7.9, 10 mm KCl, 1.5 mm MgCl2, 10% glycerol, 0.34 m sucrose, 1 mm DTT and protease inhibitors) and then supplemented with 0.1% Triton-X-100. Cells were incubated on ice for 5 min and nuclei (P1) were collected by centrifugation at 1300 g, 5 min, 4°C. The supernatant (S1) was clarified by further centrifugation (5 min, 20 000 × g, 4°C) to collect the cytosolic supernatant fraction (S2). The P1 nuclei were washed once with buffer 1 and then lysed for 30 min in buffer 2 (3 mM EDTA, 0.2 mM EGTA and 1 mM DTT, protease inhibitors). The chromatin (P3) and soluble nuclear (S3) fractions were separated by centrifugation (5 min, 1700 g, 4°C). The S2, S3 and P3 fractions were analysed by immunoblotting.

B1: GST-p12_WT: N-terminally GST-tagged Mo-MLV p12 (protein)
chain: PALTPSLGAKPKPQVLSDSGGPLIDLLTEDPPPYRDPRPPPSDRDGNGGEATPAGEAPDPSPMASRLRGRREPPVADSTTSQAF
modifications: left off: GST, N-terminal, kept
notes: N-terminally GST-tagged Mo-MLV p12
For B1, the “number of proteins significantly enriched vs GST in both replicates” value (GST-p12_WT; R1 and R2) was “seven”, the “number of proteins significantly enriched vs GST” value (GST-p12_WT; replicate 1) was “Twenty one” and the “number of proteins significantly enriched vs GST” value (GST-p12_WT; replicate 2) was 22 proteins. The “binding to DNA-coated beads” value [1] was “no binding to DNA was observed” and the “sub-cellular distribution by fractionation” value [2] was “mainly cytoplasmic”.
